Where two headings read alike, the source gives them in different places.
How the values were obtained:
Experiment in all cases: cell-based or functional assay
[1] = molecular target: T1, Endoplasmic reticulum aminopeptidase 1 (ERAP1) (UniProt Q9NZ08 1-941, limits assumed)
[2] = molecular target: T1, Endoplasmic reticulum aminopeptidase 1 …; remark: listed apart in the source
[3] = molecular target: T1, Endoplasmic reticulum aminopeptidase 1 …; remark: listed apart in the source
[4] = molecular target: T1, Endoplasmic reticulum aminopeptidase 1 …; remark: listed apart in the source
[5] = molecular target: T1, Endoplasmic reticulum aminopeptidase 1 …; remark: listed apart in the source
[6] = molecular target: T1, Endoplasmic reticulum aminopeptidase 1 …; remark: listed apart in the source

T1 sequence (Q9NZ08 whole entry): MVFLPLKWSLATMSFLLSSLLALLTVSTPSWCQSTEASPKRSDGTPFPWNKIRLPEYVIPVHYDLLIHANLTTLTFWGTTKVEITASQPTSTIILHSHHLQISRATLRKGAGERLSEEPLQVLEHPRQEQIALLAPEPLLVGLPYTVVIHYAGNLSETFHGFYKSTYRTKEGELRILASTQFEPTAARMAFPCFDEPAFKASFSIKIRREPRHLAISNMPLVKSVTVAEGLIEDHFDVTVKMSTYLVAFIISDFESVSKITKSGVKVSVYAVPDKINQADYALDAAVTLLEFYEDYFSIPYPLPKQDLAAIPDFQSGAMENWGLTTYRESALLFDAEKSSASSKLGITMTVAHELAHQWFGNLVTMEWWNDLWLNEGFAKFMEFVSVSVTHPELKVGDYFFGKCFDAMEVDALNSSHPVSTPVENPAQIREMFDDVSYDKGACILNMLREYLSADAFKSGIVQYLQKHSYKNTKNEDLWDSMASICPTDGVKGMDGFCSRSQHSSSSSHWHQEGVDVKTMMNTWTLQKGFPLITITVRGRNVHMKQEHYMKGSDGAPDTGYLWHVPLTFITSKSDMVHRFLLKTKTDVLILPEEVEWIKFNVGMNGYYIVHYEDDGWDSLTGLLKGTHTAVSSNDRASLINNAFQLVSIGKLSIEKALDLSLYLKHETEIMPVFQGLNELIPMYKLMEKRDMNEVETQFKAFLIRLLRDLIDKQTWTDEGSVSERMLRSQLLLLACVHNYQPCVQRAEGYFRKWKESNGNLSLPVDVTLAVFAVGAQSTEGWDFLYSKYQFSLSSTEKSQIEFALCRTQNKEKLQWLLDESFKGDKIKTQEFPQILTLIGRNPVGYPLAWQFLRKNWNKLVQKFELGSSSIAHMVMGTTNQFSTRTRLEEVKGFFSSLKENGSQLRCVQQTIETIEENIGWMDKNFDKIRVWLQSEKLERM

B1: peptide CDGLYDGMEHL (SEQ ID NO: 176) (peptide)
peptide: CDGLYDGMEHL
formation rate of … (SEQ ID NO: 19)(%) [1]: 25%

B2: peptide YCGLYDGMEHL (SEQ ID NO: 183) (peptide)
peptide: YCGLYDGMEHL
formation rate of … (SEQ ID NO: 19)(%) [2]: 5.7%

B3: peptide LCGLYDGMEHL (SEQ ID NO: 193) (peptide)
peptide: LCGLYDGMEHL
formation rate of … (SEQ ID NO: 19)(%) [3]: 0%

B4: peptide ICGLYDGMEHL (SEQ ID NO: 192) (peptide)
peptide: ICGLYDGMEHL
formation rate of … (SEQ ID NO: 19)(%) [3]: 0%

B5: peptide CPGLYDGMEHL (SEQ ID NO: 169) (peptide)
peptide: CPGLYDGMEHL
formation rate of … (SEQ ID NO: 19)(%) [4]: 0%

B6: peptide CMVLQELNVTV (SEQ ID NO: 94) (peptide)
peptide: CMVLQELNVTV
formation rate (%) 1 hr later [5]: 28.7% | formation rate (%) 2 hr later [5]: 34.5% | formation rate (%) 4 hr later [5]: 36.5% | formation rate (%) 8 hr later [5]: 36.8%

B7: peptide CNGLYDGMEHL (SEQ ID NO: 175) (peptide)
peptide: CNGLYDGMEHL
formation rate of … (SEQ ID NO: 19)(%) [1]: 82.2%

B8: peptide CGLYDGMEHL (SEQ ID NO: 98) (peptide)
peptide: H-CGLYDGMEHL-OH
formation rate (%) 1 hr later [5]: 95.1% | formation rate (%) 2 hr later [5]: 106% | formation rate (%) 4 hr later [5]: 100% | formation rate (%) 8 hr later [5]: 101%

B9: peptide CWGLYDGMEHL (SEQ ID NO: 171) (peptide)
peptide: CWGLYDGMEHL
formation rate of … (SEQ ID NO: 19)(%) [1]: 0%

B10: peptide KCGLYDGMEHL (SEQ ID NO: 194) (peptide)
peptide: KCGLYDGMEHL
formation rate of … (SEQ ID NO: 19)(%) [3]: 0%

B11: peptide ACGLYDGMEHL (SEQ ID NO: 185) (peptide)
peptide: ACGLYDGMEHL
formation rate of … (SEQ ID NO: 19)(%) [2]: 5.2%

B12: peptide NCGLYDGMEHL (SEQ ID NO: 187) (peptide)
peptide: NCGLYDGMEHL
formation rate of … (SEQ ID NO: 19)(%) [3]: 18.2%

B13: peptide CKGLYDGMEHL (SEQ ID NO: 167) (peptide)
peptide: CKGLYDGMEHL
formation rate of … (SEQ ID NO: 19)(%) [4]: 0%

B14: peptide SCGLYDGMEHL (SEQ ID NO: 180) (peptide)
peptide: SCGLYDGMEHL
formation rate of … (SEQ ID NO: 19)(%) [2]: 22.2%

B15: peptide TCGLYDGMEHL (SEQ ID NO: 181) (peptide)
peptide: TCGLYDGMEHL
formation rate of … (SEQ ID NO: 19)(%) [2]: 7.3%

B16: peptide CAVLQELNVTV (SEQ ID NO: 92) (peptide)
peptide: CAVLQELNVTV
formation rate (%) 1 hr later [5]: 46.1% | formation rate (%) 2 hr later [5]: 49.9% | formation rate (%) 4 hr later [5]: 51.3% | formation rate (%) 8 hr later [5]: 53.5%

B17: peptide ACVLQELNVTV (SEQ ID NO: 143) (peptide)
peptide: ACVLQELNVTV
formation rate of … (SEQ ID NO: 43)(%) [6]: 1.8%

B18: peptide CLVLQELNVTV (SEQ ID NO: 93) (peptide)
peptide: CLVLQELNVTV
formation rate (%) 1 hr later [5]: 31.1% | formation rate (%) 2 hr later [5]: 36.9% | formation rate (%) 4 hr later [5]: 38.1% | formation rate (%) 8 hr later [5]: 36.1%

B19: peptide SCVLQELNVTV (SEQ ID NO: 157) (peptide)
peptide: SCVLQELNVTV
formation rate of … (SEQ ID NO: 43)(%) [6]: 1.3%

B20: peptide GCVLQELNVTV (SEQ ID NO: 149) (peptide)
peptide: GCVLQELNVTV
formation rate of … (SEQ ID NO: 43)(%) [6]: 1.1%

B21: peptide CTGLYDGMEHL (SEQ ID NO: 170) (peptide)
peptide: CTGLYDGMEHL
formation rate of … (SEQ ID NO: 19)(%) [1]: 89.4%

B22: peptide CQGLYDGMEHL (SEQ ID NO: 162) (peptide)
peptide: CQGLYDGMEHL
formation rate of … (SEQ ID NO: 19)(%) [4]: 56.9%

B23: peptide MCGLYDGMEHL (SEQ ID NO: 195) (peptide)
peptide: MCGLYDGMEHL
formation rate of … (SEQ ID NO: 19)(%) [3]: 5.8%

B24: peptide YCVLQELNVTV (SEQ ID NO: 160) (peptide)
peptide: YCVLQELNVTV
formation rate of … (SEQ ID NO: 43)(%) [6]: 0.7%

B25: peptide CGGLYDGMEHL (SEQ ID NO: 164) (peptide)
peptide: CGGLYDGMEHL
formation rate of … (SEQ ID NO: 19)(%) [4]: 0%

B26: peptide HCGLYDGMEHL (SEQ ID NO: 191) (peptide)
peptide: HCGLYDGMEHL
formation rate of … (SEQ ID NO: 19)(%) [3]: 0%

B27: peptide VCGLYDGMEHL (SEQ ID NO: 184) (peptide)
peptide: VCGLYDGMEHL
formation rate of … (SEQ ID NO: 19)(%) [2]: 2.4%

B28: peptide CSGLYDGMEHL (SEQ ID NO: 177) (peptide)
peptide: CSGLYDGMEHL
formation rate of … (SEQ ID NO: 19)(%) [1]: 1.1%

B29: peptide WCGLYDGMEHL (SEQ ID NO: 182) (peptide)
peptide: WCGLYDGMEHL
formation rate of … (SEQ ID NO: 19)(%) [2]: 0%

B30: peptide CLGLYDGMEHL (SEQ ID NO: 90) (peptide)
peptide: CLGLYDGMEHL
formation rate (%) 1 hr later [5]: 58.3% | formation rate (%) 2 hr later [5]: 94.9% | formation rate (%) 4 hr later [5]: 88.4% | formation rate (%) 8 hr later [5]: 88.3%

B31: peptide RCGLYDGMEHL (SEQ ID NO: 186) (peptide)
peptide: RCGLYDGMEHL
formation rate of … (SEQ ID NO: 19)(%) [2]: 0%

B32: peptide CVLQELNVTV (SEQ ID NO: 99) (peptide)
peptide: CVLQELNVTV
formation rate (%) 1 hr later [5]: 83.4% | formation rate (%) 2 hr later [5]: 85.6% | formation rate (%) 4 hr later [5]: 78.8% | formation rate (%) 8 hr later [5]: 83.9%

B33: peptide DCGLYDGMEHL (SEQ ID NO: 188) (peptide)
peptide: DCGLYDGMEHL
formation rate of … (SEQ ID NO: 19)(%) [3]: 3.2%

B34: peptide QCGLYDGMEHL (SEQ ID NO: 178) (peptide)
peptide: QCGLYDGMEHL
formation rate of … (SEQ ID NO: 19)(%) [2]: 3.6%

B35: peptide CYGLYDGMEHL (SEQ ID NO: 172) (peptide)
peptide: CYGLYDGMEHL
formation rate of … (SEQ ID NO: 19)(%) [1]: 0%

B36: peptide CIGLYDGMEHL (SEQ ID NO: 166) (peptide)
peptide: CIGLYDGMEHL
formation rate of … (SEQ ID NO: 19)(%) [4]: 0.4%

B37: peptide CMGLYDGMEHL (SEQ ID NO: 91) (peptide)
peptide: CMGLYDGMEHL
formation rate (%) 1 hr later [5]: 90.6% | formation rate (%) 2 hr later [5]: 103% | formation rate (%) 4 hr later [5]: 96% | formation rate (%) 8 hr later [5]: 101%

B38: peptide CAGLYDGMEHL (SEQ ID NO: 89) (peptide)
peptide: CAGLYDGMEHL
formation rate (%) 1 hr later [5]: 87.8% | formation rate (%) 2 hr later [5]: 99.4% | formation rate (%) 4 hr later [5]: 103% | formation rate (%) 8 hr later [5]: 97.5%

B39: peptide PCGLYDGMEHL (SEQ ID NO: 179) (peptide)
peptide: PCGLYDGMEHL
formation rate of … (SEQ ID NO: 19)(%) [2]: 19.2%

B40: peptide GCGLYDGMEHL (SEQ ID NO: 190) (peptide)
peptide: GCGLYDGMEHL
formation rate of … (SEQ ID NO: 19)(%) [3]: 10.4%

B41: peptide ECGLYDGMEHL (SEQ ID NO: 189) (peptide)
peptide: ECGLYDGMEHL
formation rate of … (SEQ ID NO: 19)(%) [3]: 2.9%

B42: peptide CVGLYDGMEHL (SEQ ID NO: 173) (peptide)
peptide: CVGLYDGMEHL
formation rate of … (SEQ ID NO: 19)(%) [1]: 0%

B43: peptide CFGLYDGMEHL (SEQ ID NO: 168) (peptide)
peptide: CFGLYDGMEHL
formation rate of … (SEQ ID NO: 19)(%) [4]: 0%

B44: peptide FCGLYDGMEHL (SEQ ID NO: 196) (peptide)
peptide: FCGLYDGMEHL
formation rate of … (SEQ ID NO: 19)(%) [3]: 17.6%

B45: peptide CEGLYDGMEHL (SEQ ID NO: 163) (peptide)
peptide: CEGLYDGMEHL
formation rate of … (SEQ ID NO: 19)(%) [4]: 6.2%

B46: peptide CHGLYDGMEHL (SEQ ID NO: 165) (peptide)
peptide: CHGLYDGMEHL
formation rate of … (SEQ ID NO: 19)(%) [4]: 0%

B47: peptide CRGLYDGMEHL (SEQ ID NO: 174) (peptide)
peptide: CRGLYDGMEHL
formation rate of … (SEQ ID NO: 19)(%) [1]: 0%

Source: patent US20200171136A1 (SUMITOMO DAINIPPON PHARMA, published 2020)
